Data as given in the supplement of paper PMC12783771.
± gives the standard deviation of the averaged measurements.

B1: library; numbered along this chain (parent)
chain: MNIQIGELAKRTACPVVTIRFYEQEGLLPPPGRSRGNFRLYGEEHVERLQFIRHCRSLDMPLSDVRTLLSYRKRPDQDCGEVNMLLDEHIRQVESRIGALLELKHHLVELREACSGARPAQSCGILQGLSDCVCDTRGTTAHPSD

What was measured:
[1] = variants of: B1; test: sfGFP reporter fluorescence (15 h) (µM FITC); higher = higher leak; conditions: library round: Round 0; ligand: none
Method in brief: (§1)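 With 1 µM lead chloride, 30 µM zinc acetate or no metal present, 1 μL Echo-assembled reactions were incubated 15 hr at 30 °C. They contained BL21 Star (DE3) PANOx-SP extract, 30 μg/mL GamS, the pPbrR-sfGFP reporter plasmid and PCR-made linear PbrR templates Echo-normalized to 5 nM. Endpoint sfGFP fluorescence was read on a Synergy Neo2 at 485/528 nm against FITC standards in 50 mM sodium borate pH 8.5. Results are expressed as µM FITC.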

[2] = variants of: B1; test: sfGFP reporter fluorescence (15 h) (µM FITC); higher = stronger transcriptional activation; conditions: library round: Round 0
Method in brief: as §1

| Variant | sfGFP reporter fluorescence [1] | sfGFP reporter fluorescence ([2]; ligand: 1 µM Pb) | sfGFP reporter fluorescence ([2]; ligand: 30 µM Zn) |
| --- | --- | --- | --- |
| MNIQIGELAKRTACPVVTIRFYEQEGLLPPPGRSRGNFRLYGEEHVERLQFIRHCRSLDMPLSDVRTLLSYRKRPDQDCGEVNMLLDEHIRQVESRHGALLELKHHLVELREACSGARPAQSCGILQGLSDCVCDTRGTTAHPSD | 0.0564 ± 0.0062 | 0.0596 ± 0.0034 | 0.263 ± 0.0018 |
| MNIQIGELAKRTACPVVTIRFYEQEGLLPPPGRSRGNFRLYGEEHVERLQFIRHCRSLDMPLSDVRTLLSYRKRPDQDCGEVNMLLDEHIRQVESRRGALLELKHHLVELREACSGARPAQSCGILQGLSDCVCDTRGTTAHPSD | 0.0577 ± 0.0054 | 0.0564 ± 0.0015 | 0.116 ± 0.0013 |
| MNIQIGELAKRTACPVVTIRFYEQEGLLPPPGRSRGNFRLYGEEHVERLQFIRHCRSLDMPLSDVRTLLSYRKRPDQDCGEVNMLLDEHIRQVESRKGALLELKHHLVELREACSGARPAQSCGILQGLSDCVCDTRGTTAHPSD | 0.0607 ± 0.0029 | 0.0597 ± 0.0021 | 0.102 ± 0.006 |
| MNIQIGELAKRTACPVVTIRFYEQEGLLPPPGRSRGNFRLYGEEHVERLQFIRHCRSLDMPLSDVRTLLSYRKRPDQDCGEVNMLLDEHIRQVESRQGALLELKHHLVELREACSGARPAQSCGILQGLSDCVCDTRGTTAHPSD | 0.057 ± 0.0029 | 0.057 ± 0.0034 | 0.287 ± 0.0088 |
| MNIQIGELAKRTACPVVTIRFYEQEGLLPPPGRSRGNFRLYGEEHVERLQFIRHCRSLDMPLSDVRTLLSYRKRPDQDCGEVNMLLDEHIRQVESRSGALLELKHHLVELREACSGARPAQSCGILQGLSDCVCDTRGTTAHPSD | 0.0592 ± 0.0039 | 0.0722 ± 0.0015 | 0.554 ± 0.0062 |
| MNIQIGELAKRTACPVVTIRFYEQEGLLPPPGRSRGNFRLYGEEHVERLQFIRHCRSLDMPLSDVRTLLSYRKRPDQDCGEVNMLLDEHIRQVESRPGALLELKHHLVELREACSGARPAQSCGILQGLSDCVCDTRGTTAHPSD | 0.0542 ± 0.0036 | 0.0561 ± 0.001 | 0.135 ± 0.0036 |
| MNIQIGELAKRTACPVVTIRFYEQEGLLPPPGRSRGNFRLYGEEHVERLQFIRHCRSLDMPLSDVRTLLSYRKRPDQDCGEVNMLLDEHIRQVESRGGALLELKHHLVELREACSGARPAQSCGILQGLSDCVCDTRGTTAHPSD | 0.0555 ± 0.0013 | 0.0603 ± 0.0013 | 0.404 ± 0.014 |
| MNIQIGELAKRTACPVVTIRFYEQEGLLPPPGRSRGNFRLYGEEHVERLQFIRHCRSLDMPLSDVRTLLSYRKRPDQDCGEVNMLLDEHIRQVESRMGALLELKHHLVELREACSGARPAQSCGILQGLSDCVCDTRGTTAHPSD | 0.0574 ± 0.0023 | 0.057 ± 0.0023 | 0.2807 ± 0.00052 |
| MNIQIGELAKRTACPVVTIRFYEQEGLLPPPGRSRGNFRLYGEEHVERLQFIRHCRSLDMPLSDVRTLLSYRKRPDQDCGEVNMLLDEHIRQVESRDGALLELKHHLVELREACSGARPAQSCGILQGLSDCVCDTRGTTAHPSD | 0.0596 ± 0.0044 | 0.0575 ± 0.001 | 0.193 ± 0.0054 |
| MNIQIGELAKRTACPVVTIRFYEQEGLLPPPGRSRGNFRLYGEEHVERLQFIRHCRSLDMPLSDVRTLLSYRKRPDQDCGEVNMLLDEHIRQVESRLGALLELKHHLVELREACSGARPAQSCGILQGLSDCVCDTRGTTAHPSD | 0.0596 ± 0.0023 | 0.0797 ± 0.0044 | 0.842 ± 0.014 |
| MNIQIGELAKRTACPVVTIRFYEQEGLLPPPGRSRGNFRLYGEEHVERLQFIRHCRSLDMPLSDVRTLLSYRKRPDQDCGEVNMLLDEHIRQVESREGALLELKHHLVELREACSGARPAQSCGILQGLSDCVCDTRGTTAHPSD | 0.0574 ± 0.0044 | 0.0618 ± 0.0018 | 0.386 ± 0.055 |
| MNIQIGELAKRTACPVVTIRFYEQEGLLPPPGRSRGNFRLYGEEHVERLQFIRHCRSLDMPLSDVRTLLSYRKRPDQDCGEVNMLLDEHIRQVESRNGALLELKHHLVELREACSGARPAQSCGILQGLSDCVCDTRGTTAHPSD | 0.0566 ± 0.0029 | 0.0603 ± 0.0039 | 0.325 ± 0.0065 |
| MNIQIGELAKRTACPVVTIRFYEQEGLLPPPGRSRGNFRLYGEEHVERLQFIRHCRSLDMPLSDVRTLLSYRKRPDQDCGEVNMLLDEHIRQVESRCGALLELKHHLVELREACSGARPAQSCGILQGLSDCVCDTRGTTAHPSD | 0.0601 ± 0.0015 | 0.0702 ± 0.0065 | 0.761 ± 0.036 |
| MNIQIGELAKRTACPVVTIRFYEQEGLLPPPGRSRGNFRLYGEEHVERLQFIRHCRSLDMPLSDVRTLLSYRKRPDQDCGEVNMLLDEHIRQVESRFGALLELKHHLVELREACSGARPAQSCGILQGLSDCVCDTRGTTAHPSD | 0.0535 ± 0.0042 | 0.0592 ± 0.0029 | 0.278 ± 0.036 |
